# Experimental data from patent US20220372154A1 (APEXIGEN, published 2022).
# Substitutions are numbered along the chain they refer to.
# T1: cynomolgus TNFR2-His tagged protein (cynomolgus, UniProt A0A2K5VET2 132-366)
# T1 construct: also called Cyno TNFR2; cynomolgus TNFR2 protein; not shown: His tag
# T1 sequence: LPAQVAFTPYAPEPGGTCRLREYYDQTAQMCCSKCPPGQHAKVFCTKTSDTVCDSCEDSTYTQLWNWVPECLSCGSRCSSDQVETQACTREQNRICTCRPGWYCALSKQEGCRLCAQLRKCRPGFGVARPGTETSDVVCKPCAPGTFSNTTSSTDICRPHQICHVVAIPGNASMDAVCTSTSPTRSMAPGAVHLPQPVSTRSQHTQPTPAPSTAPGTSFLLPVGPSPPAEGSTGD
# T2: TNFR-Fc (UniProt P20333 23-257, limits assumed)
# T2 construct: Printed only as TNFR-Fc; not shown: Fc part
# T2 sequence (looked up): T1 sequence with G16S, P36S, Q117P, H164N, A210E, G216S, V223M
# T3: TNFR2 (as used in the Octet measurement) (UniProt P20333 23-257, limits assumed)
# T3 construct: Probably human soluble TNFR2; the legend says only TNFR2
# T3 sequence (looked up): T1 sequence with G16S, P36S, Q117P, H164N, A210E, G216S, V223M
# T4: death receptor 6 (DR6) (UniProt O75509 42-349, limits assumed)
# T4 sequence (looked up): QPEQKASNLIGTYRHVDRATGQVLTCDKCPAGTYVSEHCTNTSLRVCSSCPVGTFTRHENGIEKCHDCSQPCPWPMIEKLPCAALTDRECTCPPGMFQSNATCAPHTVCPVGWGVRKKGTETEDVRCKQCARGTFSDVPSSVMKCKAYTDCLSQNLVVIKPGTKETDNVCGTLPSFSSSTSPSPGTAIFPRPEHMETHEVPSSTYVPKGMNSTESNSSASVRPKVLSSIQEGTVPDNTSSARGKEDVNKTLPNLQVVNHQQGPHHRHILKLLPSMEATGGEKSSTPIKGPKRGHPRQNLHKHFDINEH
# T5: osteoprotegerin (OPG) (UniProt O00300 22-401, limits assumed)
# T5 sequence (looked up): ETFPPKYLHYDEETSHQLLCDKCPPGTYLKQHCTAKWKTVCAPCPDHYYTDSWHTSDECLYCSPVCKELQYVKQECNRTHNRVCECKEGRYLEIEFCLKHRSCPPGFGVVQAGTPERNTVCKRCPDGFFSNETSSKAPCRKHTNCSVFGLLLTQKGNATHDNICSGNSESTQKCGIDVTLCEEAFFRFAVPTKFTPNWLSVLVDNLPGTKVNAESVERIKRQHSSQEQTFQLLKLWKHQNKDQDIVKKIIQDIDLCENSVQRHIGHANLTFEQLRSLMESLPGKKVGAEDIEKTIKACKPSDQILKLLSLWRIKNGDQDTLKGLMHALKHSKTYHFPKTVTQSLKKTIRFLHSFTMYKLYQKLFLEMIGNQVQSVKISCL
# T6: human TNFR2-His tagged protein (soluble) (human, UniProt P20333 23-257)
# T6 construct: also called hTNFR2 (soluble); soluble TNFR2-His; not shown: His tag
# T6 sequence (looked up): T1 sequence with G16S, P36S, Q117P, H164N, A210E, G216S, V223M
# T7: human TNFR2 expressed on cells (human, UniProt P20333 23-461)
# T7 construct: whole, on cells; also called hTNFR2 (cell); CHO-TNFR2
# T7 sequence (looked up): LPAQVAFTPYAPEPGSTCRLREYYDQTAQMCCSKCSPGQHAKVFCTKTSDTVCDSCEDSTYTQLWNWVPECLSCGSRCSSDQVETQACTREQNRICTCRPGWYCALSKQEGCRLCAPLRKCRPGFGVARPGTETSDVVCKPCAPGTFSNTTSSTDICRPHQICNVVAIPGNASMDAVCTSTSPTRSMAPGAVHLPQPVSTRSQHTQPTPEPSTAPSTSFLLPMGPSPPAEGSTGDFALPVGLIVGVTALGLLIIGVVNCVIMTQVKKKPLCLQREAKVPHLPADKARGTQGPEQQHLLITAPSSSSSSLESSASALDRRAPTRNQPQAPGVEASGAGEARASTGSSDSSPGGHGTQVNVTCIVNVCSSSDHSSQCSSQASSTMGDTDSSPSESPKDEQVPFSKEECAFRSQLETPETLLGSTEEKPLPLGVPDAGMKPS
# T8: herpesvirus entry mediator (HVEM) (UniProt Q92956 39-202, limits assumed)
# T8 sequence (looked up): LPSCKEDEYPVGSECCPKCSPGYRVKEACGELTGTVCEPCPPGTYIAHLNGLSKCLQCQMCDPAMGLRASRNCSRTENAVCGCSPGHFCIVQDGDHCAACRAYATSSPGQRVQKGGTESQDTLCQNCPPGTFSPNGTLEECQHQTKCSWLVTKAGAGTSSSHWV
# B1: humanized antibody h600-25-71 (antibody, V domains shown)
# VH: EVQLVESGGGLVQPGGSLRLSCAASGIDLSSYAMGWVRQAPGKGLEWVGDISTSGNAYYATWVKGRFTISRDNSKNTLYLQMNSLRAEDTAVYYCARADYGGETYAFDPWGQGTLVTVSS
# VL: DIQMTQSPSSLSASVGDRVTITCQASQSISSYLNWYQQKPGKAPKLLIYSASTLASGVPSRFSGSGSGTDFTLTISSLQPEDFATYYCQQGYSDSNIDNVFGGGTKVEIK
# notes: also called Ab 25-71; clone 25-71
# How the values were obtained:
# [1] = biological target: T1, cynomolgus TNFR2-His tagged protein; test: ELISA, cynomolgus TNFR2
# TNFR-Fc = biological target: T2, TNFR-Fc; test: TNF-α blocking ELISA (soluble)
# [2] = biological target: T1, cynomolgus TNFR2-His tagged protein; test: ELISA on coated cynoTNFR2-His, OD 450 nm
# [3] = biological target: T3, TNFR2 (as used in the Octet measurement); test: Octet (BLI), monovalent binding
# death receptor 6 (DR6) = biological target: T4, death receptor 6 (DR6); test: ELISA on coated DR6, OD 650 nm
# Description: (§1) To test binding to TNFR family members, target proteins were coated on ELISA plates at 1 μg/mL at 4° C. overnight. Plates were washed, blocked, and antibodies were added at indicated concentrations for 1 hour at RT. Positive control antibodies for each protein were used at ˜1 ug/mL. Antibodies were washed and detected with anti-human IgG HRP for 1 hour. Assay was developed using TMB substrate for 10 minutes. For cell-binding, human CD4+ T cells purified from buffy coats were cultured in flat-bottom plates with anti-CD3/CD28 for 24 hours. Cells were harvested and stained for viability, CD4, CD25 and FOXP3. Test antibody staining was detected using anti-human IgG APC. Binding titration of test antibodies was evaluated on CD4+CD25hiFOXP3+ regulatory T cells and plotted as percent binding.
# osteoprotegerin (OPG) = biological target: T5, osteoprotegerin (OPG); test: ELISA on coated OPG, OD 650 nm
# Description: as §1
# [4] = biological target: T6, human TNFR2-His tagged protein (soluble); test: ELISA on coated hTNFR2-His, OD 450 nm
# [5] = biological target: T7, human TNFR2 expressed on cells; test: blocking of biotinylated TNF-α on TNFR2-CHO cells, flow cytometry
# Description: TNFR2-overexpressing CHO cells were plated at 100,000 cells per well. Cells were incubated with the indicated antibodies for 30 minutes on ice. […] Cells were analyzed using Cytoflex or MACSQuant flow cytometer. Assay was repeated twice.
# [6] = biological target: T8, herpesvirus entry mediator (HVEM); test: ELISA on coated HVEM, OD 650 nm
# Description: as §1
binder,measurement,setting,value
B1,EC50,[1],0.123 nM
same,IC50,TNFR-Fc,1.96 nM
same,EC50 (read off the curve),[2],~0.1 nM
same,koff,[3],0.000553 s⁻¹
same,kon,[3],358000 M⁻¹ s⁻¹
same,binding result,death receptor 6 (DR6),no binding (tested: about 67 nM)
same,binding result,osteoprotegerin (OPG),no binding (tested: about 67 nM)
same,EC50 (read off the curve),[4],~0.2 nM
same,IC50,[5],0.149 nM
same,binding result,[6],no binding (tested: about 67 nM)
